Literature values in publication PMC4059559.

Legend:
His131 = His131 (UniProt position 131, WGVCTHLGCVP); assay: other
His152 = His152 (UniProt position 152, WFCPCHGSHYD); assay: other
[1] = oxidised ISP (ISPox), isolated protein

For “Rieske iron-sulfur protein (ISP) of the cytochrome bc1 complex, isolated (Rhodobacter sphaeroides)”, the pKa (His131; [1]) is listed as roughly 9.6, the pKa (His131; reduced ISP (ISPH)) is listed as ~12–13 and the pKa (His152; [1]) is listed as roughly 7.6. For the same substance, the pKa (His152; reduced ISP (ISPH)) was ~12–13.
